# According to the DeepSol protein solubility set:
# Assay: soluble on expression in E. coli; label from the status in PepcDB or PDB records
row,Sequence,soluble on expression in E. coli
1,MAEYSMKELIEWNEKIEEIARAEGLDYYEQEFEICSYEDMIAYETYVGMPSHYPHWSYGKNYERIKTLYKYNLTGLPYEMVINSDPCIAYLMKDNTLLLQILTMAHVYGHNDFFKNNRLFKLGTRAKDTVDMFKNHADRIREYIQDPGIGYAKVEKILNAAHAIRYQISRNIGVRVLSQEEKKKELLERYNKPKSEYPLLEPKSKEEEAPPDFKKIPVEPEEDMLLFFMNYSKLTDWERDILSIVREETLYFLPQIETKIMNEGWASFWHYNILNKLNLEQGLHFEFLKRHNQVIRPVLGQLNPYYIGFRIFEDLKKRYEDDPKKIFEVREVERDQSFIRRYLTRELCEEMNLFEYAKIGNSYIVTEVSDEEGWKKIRDTIANNVGLAGIPVIKVAEWVQKDNTLVLEHEYDGREIELSYAYETMKHIVDLWDGKVMLGTVIDNKKKIIVCNEQKKVTLTDG,not soluble
2,MAFESSKSYYSIGEVSRISGIPAYLLRYWEDYFSELAPARDTRGNRRYTNRDIAMVLNIKDLVYEKGYKLNKASQMVKGGKVDHDGADHKTNEILKLQKQLLREQKEYEITGERRRMLLLEIKDEIEDILELLG,not soluble
3,MAFICELDEQWSYVGSKARQHWLGYAYNTKTGGVLAYTFGPRTDQTCRELLALLTPFNIGMLTSDDWGSYGREVPKNKHLTGKIFTQRIERNNLTLRTRIKRLGRKTICFSRSVEIHEKVIGAFIEKHMFYLEHHHHHH,soluble
4,MAFLKIDNGELLKNIRQFAKKNGLTLAEVATLAGLSASAIYSWKKHTPSVGTLKEVAQVLGTSYTKLVGKDKEPTAKATNAAAVDLKKVIENKKNQFEYDGQPITNEQMKIIRNVLKSMFKTPRL,not soluble
5,MAFSIPPLPWGYDGLAAKGISKEQVTFHYDKHHMGYVTKLNAAANSNPALAAKSVEEIIRTEKGPIFNLAAQIFNHNFYWESMSPNGGGEPSGKLAEAIRASFGSFAKFKEEFTNAAVGHFGSGWAWLVQDTTTKKLKVFQTHDAGCPLTEADLKPILTCDVWEHAYYIDYKNDRPAYVQTFWNVVNWDHAENQFTR,soluble
6,MAFYLPDWSCCGLWLFGRPRNRYSQLPEEPETFECPDRWRAEIDLGLPPGVQVGDLLRNEQTMGSLRQVYLLAVQANSITDHLKRFDAVRVPESCRGVVEAQVAKLEAVRSVIWNTMISLAVSGIEMDENGLKALLDKQAGDSLALMEMEKVATALKMDETGAWAQEISAVVSSVTAPSASAPFINSAFEPEVPTPVLAPPPVVRQPEHSGPTELALT,not soluble
7,MAGDPMGSKNESTASKASGTASEKKKIEYLDKTYEVTVPTDKIAITGSVESMEDAKLLDVHPQGAISFSGKFPDMFKDITDKAEPTGEKMEPNIEKILEMKPDVILASTKFPEKTLQKISTAGTTIPVSHISSNWKENMMLLAQLTGKEKKAKKIIADYEQDLKEIKTKINDKAKDSKALVIRIRQGNIYIYPEQVYFNSTLYGDLGLKAPNEVKAAKAQELSSLEKLSEMNPDHIFVQFSDDENADKPDALKDLEKNPIWKSLKAVKEDHVYVNSVDPLAQGGTAWSKVRFLKAAAEKLTQNLEHHHHHH,soluble
8,MAGDPMNIDYSVLKKYPLCDRCFGRLYGKLIRSSNFDRGHALKLAKAIELEEDLRTALEKMNETPENSEVNPTDLEKLEEIKELMYALHKTGTSGIKLDLIDDIEKYETKFKNEAEYEKNEECDELCPWCKGIFEPENIEKVAENVVEALSEYEFDSFLVGTKLPKRFKELENEIETPFMESIRQEFGRELGKVVVPLIKRRVDKENPDIVVMVNPYNQKVTLQVNPVFIKGRYKKLVRGIPQSHWDCRSCRGKGCEKCNFTGKQYMTSVEEIIAEPFMDVMKGSSEALHGAGREDIDVRMLGHGRPFVIEIKEPKIRKVNLEELASKVNESGNVEIINVEYGVKKDVHFFKNEPHKKTYLAHVECEEKVSNEEVAELVKKLEDLTIDQRTPDRVSHRRADLVRVRKVYKAWPHMIDDYNFELKIFCDGGLYIKELINSDEGRTTPSVSELLNKKCICKFLDVLDVHDYEDAENILEHHHHHH,soluble
9,MAGDPMQKVKSDILTHRGSHFDLGVQTAQWMQHTPLLKNREQEWKKRMPRFDIHIKETYDIFQTYAPQIWEEIRGMQEVLNLPTRQMILNFAHYRFTPLKNSGCTVYLGNDYMVRNYDYHPATYDGRYLLFQPNDGGLAQIGPTSRVTGRMDGMNEAGLAMGYNFMHRKHPGDGFVCYMIGRLVLQYCKDVPEAIKLLKEIPHRSSFSYIVMDKYLNHAIIEVTPRSIDVRYDHTCTNHFKLLTHENRNYTKESTERLDRLIKQTPAQLGKMDAFKLFNNPEFEIYSKLFKSWSGTIHTSMYEPQSLTAHITLGENKAPVEIDFQQWLNGESLNINELTGQIDTELTFATYLEHHHHHH,not soluble
10,MAGFVPLRWPISRMSSAVPRYIVGIDLGTTHTVVSYADGGDPSRIEPLFLEQLVAPGQVAGRPLLPSVRYHPATGELAEADTALPWPVEETAPGCRPVIGEFARQLGSRSRGRLVASAKSWLCHTGVDRTADILPWGAPDEVPKVSPVEASASFLRHVRCAWNHRFPAHPLETQDVIVTIPASFDDAARALTVEAARRAGLANVRLLEEPQAACYDFLWTYRGRLAETLEGVNLLLVCDVGGGTTDFTLIRVDAGGSEPELERIAVGNHLMLGGDNIDLTLAHRLEPRLTGAERSLSATDLILLAEQCRRAKETLLAEQGPESVTVTLLGKGGGLIGGARSVELSRHEVLEVVLDGFFPRVGADAVPERRSGVVEFGLPYAADPAITRHAAAFLIRHRNDAGGAAPDALLLNGGVFHSPVIAGRMAEVVGSWCGRTPVMLRNPRPDQAVAFGAVAFGLSRRGLAVRRIGGGSARAYYLLVGDANERSRRGVCILPRGAAEGQEWTVERRNFLLSVGRPVRFHVFSSTVDSGHAPGDLAVLDEAGFGELPPLAVALQAQEQGDVEVRLAARLTAIGTLQLQCVAVGDPEQRWDLELQLRGGGPRPTASASLHPRAAEAQEHIGLIFGKKTRQFGPKAVKTLRNDLEKILGKREDWDTALCRELYAALLEGAPHRRRSADHERLWLSLAGYCLRPGFGAPLDDWRVGQVWNLYSQGLQFVNEAQNWSEWWIVWRRIAGGLRAEAQQRLFADVAGFIDPVRARRGNAEALAKKRAFEDMVRLAASLERLSAGDKTMLGGWLVQRLDKAPDSAELWWALGRVGARAPFHGSAHNLVAREVVEDWVELALQRDWKRQGFVAFAATLLARLTGDRERDLDATLRNRVAEKLVASSAPEIWLELVTEVRGLDASDEKRIFGEGLPPGLRLVDSAWGALEHHHHHH,not soluble
11,MAGGPPKALPSTGPQSLRDMPHPLAGSSSEEAVGGDSTPSPDLLMARSFGDKDLILPNGGTPAGTASPASSSSLLNRLQLDDDIDGEARDLFVTVDDPKKHVCTMETYITYRITTKSTRVEFDLPEYSVRRRYQDFDWLRNKLEESQPTHLIPPLPEKFVVKGVVDRFSEEFVETRRKALDKFLKRITDHPVLSFNEHFNVFLTAKDLNAYKKQGIALLSRVGESVKHVTGGYKLRSRPLEFAAISDYLDTFALKLGTIDRIAQRIIKEEIEYLVELREYGPVYSTWSALEGELAEPLEGVSACIGNCSTALEELTDDITEEFLPVLREYVLYSDSMKGVLKKRDQVQAEYEAKLEAVALRKEERPKVPADVEKCQDRMECFNADLKADMERWQSNKRHDFRQLLVGLADKNIQYYEKCLMAWESIIPLLQEKQETK,soluble
12,MAGQTLKGPWNNLERLAENTGEFQEVVRAFYDTLDAARSSIRVVRVERVSHPLLQQQYELYRERLLQRCERRPVEQVLYHGTTAPAVPDICAHGFNRSFCGRNATVYGKGVYFAKRASLSVQDRYSPPNADGHKAVFVARVLTGDYGQGRRGLRAPPLRGPGHVLLRYDSAMDCICQPSIFVIFHDTQALPTHLITCEHVPRASPDDPSGAHHHHHH,soluble
13,MAGSNSRKPVVGMKIRVALVSALLAVSGCTTLSGKAPTLAPTPASTPPTSGKVTKSIISAMDGGLIGGSIGNGLSDEEKRSALEAEYKALEYTTSGQKVAWKGDQASHYGEVVPAQPYRVGSQDCRQYTQTVFTGGAGVTARGTACRNADGSWTPLTLEHHHHHH,soluble
14,MAGSPTCLTLIYILWQLTGSAASGPVKELVGSVGGAVTFPLKSKVKQVDSIVWTFNTTPLVTIQPEGGTIIVTQNRNRERVDFPDGGYSLKLSKLKKNDSGIYYVGIYSSSLQQPSTQEYVLHVYEHLSKPKVTMGLQSNKNGTCVTNLTCCMEHGEEDVIYTWKALGQAANESHNGSILPISWRWGESDMTFICVARNPVSRNFSSPILARKLCEGAADDPDGSGLNDIFEAQKIEWHHHHHHHH,soluble
